From article PMC4491848

Molecular target: platelet membrane glycoprotein (GP) Ib on human platelets (human (endogenous in platelets)) (UniProt P07359)
Sequence of UniProt P07359 (P07359 17-652, chain 1 of 2): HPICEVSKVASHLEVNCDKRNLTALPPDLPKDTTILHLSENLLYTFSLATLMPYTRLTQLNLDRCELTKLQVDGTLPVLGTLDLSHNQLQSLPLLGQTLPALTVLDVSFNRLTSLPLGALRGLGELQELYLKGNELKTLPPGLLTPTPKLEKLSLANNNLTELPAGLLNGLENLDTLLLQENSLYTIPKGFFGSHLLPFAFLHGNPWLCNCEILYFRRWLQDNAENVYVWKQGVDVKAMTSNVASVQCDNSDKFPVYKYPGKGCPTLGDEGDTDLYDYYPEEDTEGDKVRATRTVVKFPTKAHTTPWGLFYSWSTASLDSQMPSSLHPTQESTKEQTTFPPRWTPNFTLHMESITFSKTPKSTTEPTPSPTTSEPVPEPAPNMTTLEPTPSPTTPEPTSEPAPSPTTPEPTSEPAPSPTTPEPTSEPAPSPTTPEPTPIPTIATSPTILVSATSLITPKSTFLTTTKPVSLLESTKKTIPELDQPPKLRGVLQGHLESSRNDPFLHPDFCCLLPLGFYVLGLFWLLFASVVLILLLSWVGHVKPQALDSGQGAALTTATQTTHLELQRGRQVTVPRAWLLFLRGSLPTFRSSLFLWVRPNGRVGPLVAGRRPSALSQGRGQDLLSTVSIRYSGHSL
Sequence of UniProt P07359 (P13224 26-206, chain 2 of 2, further chain): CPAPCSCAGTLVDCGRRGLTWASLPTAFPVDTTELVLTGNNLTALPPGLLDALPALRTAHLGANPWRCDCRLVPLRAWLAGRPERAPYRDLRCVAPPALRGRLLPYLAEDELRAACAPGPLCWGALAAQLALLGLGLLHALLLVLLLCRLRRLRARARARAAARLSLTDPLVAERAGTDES

Row | Substance | ristocetin-induced platelet aggregation rate in human platelet-rich plasma, dose series up to 3 μg/ml; value at the 3 μg/ml dose; the pair said to be blocked is GPIb and vWF [%]
1 | recombinant Agkisacutacin (complex) | 5.65
2 | natural Agkisacutacin (complex) | 3.46
